In patent US20170157149A1 (REGENTS OF THE UNIVERSITY OF MICHIGAN, published 2017):
No end group written: not given here.

Target: T1, scavenger receptor class BI (SR-BI) (UniProt Q8WTV0 1-552, limits assumed)
T1 sequence (looked up): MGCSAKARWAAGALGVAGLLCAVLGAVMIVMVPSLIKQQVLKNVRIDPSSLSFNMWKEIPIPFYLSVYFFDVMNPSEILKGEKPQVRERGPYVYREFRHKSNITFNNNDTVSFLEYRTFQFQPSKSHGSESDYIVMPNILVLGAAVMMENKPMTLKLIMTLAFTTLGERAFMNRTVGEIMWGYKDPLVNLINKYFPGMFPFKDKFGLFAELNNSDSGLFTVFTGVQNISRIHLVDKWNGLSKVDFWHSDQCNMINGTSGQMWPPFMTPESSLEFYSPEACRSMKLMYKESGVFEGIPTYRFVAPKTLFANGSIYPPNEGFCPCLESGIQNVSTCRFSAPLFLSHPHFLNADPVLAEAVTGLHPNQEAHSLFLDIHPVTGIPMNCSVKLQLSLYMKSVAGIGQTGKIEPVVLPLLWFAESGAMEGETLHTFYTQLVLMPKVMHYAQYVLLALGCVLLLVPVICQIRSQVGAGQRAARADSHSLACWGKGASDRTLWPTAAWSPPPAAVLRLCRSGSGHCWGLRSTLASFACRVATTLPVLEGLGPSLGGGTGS
Experiment: cell-based or functional assay

blocking of uptake of DIO labeled HDL nanoparticles by 10 fold excess of HDL (fluorescence microscopy): > 90%
B1: DIO labeled HDL nanoparticles (synthetic HDL of 22 A peptide and lipids) (other)
peptide: PVLDLFRELLNELLEALKQKLK
modifications: also: sHDL lipid nanoparticle with lipids, DIO tracer label in particle, acetate salt
